Results published in patent US20080181887A1.

Biological target: human FcRn (human)
Test: BIAcore SPR, soluble IgG over immobilized human FcRn, pH 6.0; reference purified cynomolgus monkey IgG

human FcRn (human), sequence (chain, as listed by the source limits assumed, chain 1 of 2): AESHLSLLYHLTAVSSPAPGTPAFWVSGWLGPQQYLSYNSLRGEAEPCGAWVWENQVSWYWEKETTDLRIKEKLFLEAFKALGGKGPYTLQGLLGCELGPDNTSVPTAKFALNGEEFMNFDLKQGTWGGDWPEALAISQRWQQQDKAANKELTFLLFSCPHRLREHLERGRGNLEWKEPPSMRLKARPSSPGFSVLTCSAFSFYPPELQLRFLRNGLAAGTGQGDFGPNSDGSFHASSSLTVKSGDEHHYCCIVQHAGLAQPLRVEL
human FcRn (human), sequence (P61769 21-119 limits assumed, chain 2 of 2): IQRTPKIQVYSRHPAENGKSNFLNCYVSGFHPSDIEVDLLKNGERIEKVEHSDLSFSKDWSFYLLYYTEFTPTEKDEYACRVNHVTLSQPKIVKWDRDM

“humanized anti-RSV monoclonal antibody MEDI-524 (from UniProt P01857 1-330)” gave a ratio of the human over cynomolgus IgG concentrations at Req50% of 0.9.
